# Measurements as given in IntAct's records for PubMed 35512704.
# B1: Speckle-type POZ protein (Homo sapiens), O43791 (parent)
# chain: MSRVPSPPPPAEMSSGPVAESWCYTQIKVVKFSYMWTINNFSFCREEMGEVIKSSTFSSGANDKLKWCLRVNPKGLDEESKDYLSLYLLLVSCPKSEVRAKFKFSILNAKGEETKAMESQRAYRFVQGKDWGFKKFIRRDFLLDEANGLLPDDKLTLFCEVSVVQDSVNISGQNTMNMVKVPECRLADELGGLWENSRFTDCCLCVAGQEFQAHKAILAARSPVFSAMFEHEMEESKKNRVEINDVEPEVFKEMMCFIYTGKAPNLDKMADDLLAAADKYALERLKVMCEDALCSNLSVENAAEILILADLHSADQLKTQAVDFINYHASDVLETSGWKSMVVSHPHLVAEAYRSLASAQCPFLGPPRKRLKQS
# partner: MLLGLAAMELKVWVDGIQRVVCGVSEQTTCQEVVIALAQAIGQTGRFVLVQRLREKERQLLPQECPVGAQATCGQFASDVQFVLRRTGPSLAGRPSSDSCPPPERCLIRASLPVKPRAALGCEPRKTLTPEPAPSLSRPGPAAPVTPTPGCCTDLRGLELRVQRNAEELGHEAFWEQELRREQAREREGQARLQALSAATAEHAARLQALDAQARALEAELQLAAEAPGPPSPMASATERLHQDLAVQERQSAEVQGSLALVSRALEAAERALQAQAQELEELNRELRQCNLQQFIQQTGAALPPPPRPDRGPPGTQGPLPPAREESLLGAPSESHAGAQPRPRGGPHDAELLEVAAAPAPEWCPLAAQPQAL
# B2: Speckle-type POZ protein (Homo sapiens), O43791 (parent)
# chain: B1 chain
# partner: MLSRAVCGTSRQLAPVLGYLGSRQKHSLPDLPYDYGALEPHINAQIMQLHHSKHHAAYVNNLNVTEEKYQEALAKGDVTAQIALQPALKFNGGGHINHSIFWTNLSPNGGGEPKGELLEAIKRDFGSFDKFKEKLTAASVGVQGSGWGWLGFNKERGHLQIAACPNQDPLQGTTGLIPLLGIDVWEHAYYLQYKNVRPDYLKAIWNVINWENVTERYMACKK
# B3: Speckle-type POZ protein (Homo sapiens), O43791 (parent)
# chain: B1 chain
# partner: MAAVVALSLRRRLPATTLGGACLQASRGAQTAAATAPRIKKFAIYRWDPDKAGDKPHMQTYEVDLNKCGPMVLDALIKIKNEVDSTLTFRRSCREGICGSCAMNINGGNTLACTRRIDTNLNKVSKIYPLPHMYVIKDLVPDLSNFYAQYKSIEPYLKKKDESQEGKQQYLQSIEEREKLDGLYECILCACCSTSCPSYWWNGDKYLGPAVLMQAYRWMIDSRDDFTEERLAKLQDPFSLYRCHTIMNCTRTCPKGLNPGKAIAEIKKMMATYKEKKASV
# B4: Speckle-type POZ protein (Homo sapiens), O43791 (parent)
# chain: B1 chain
# partner: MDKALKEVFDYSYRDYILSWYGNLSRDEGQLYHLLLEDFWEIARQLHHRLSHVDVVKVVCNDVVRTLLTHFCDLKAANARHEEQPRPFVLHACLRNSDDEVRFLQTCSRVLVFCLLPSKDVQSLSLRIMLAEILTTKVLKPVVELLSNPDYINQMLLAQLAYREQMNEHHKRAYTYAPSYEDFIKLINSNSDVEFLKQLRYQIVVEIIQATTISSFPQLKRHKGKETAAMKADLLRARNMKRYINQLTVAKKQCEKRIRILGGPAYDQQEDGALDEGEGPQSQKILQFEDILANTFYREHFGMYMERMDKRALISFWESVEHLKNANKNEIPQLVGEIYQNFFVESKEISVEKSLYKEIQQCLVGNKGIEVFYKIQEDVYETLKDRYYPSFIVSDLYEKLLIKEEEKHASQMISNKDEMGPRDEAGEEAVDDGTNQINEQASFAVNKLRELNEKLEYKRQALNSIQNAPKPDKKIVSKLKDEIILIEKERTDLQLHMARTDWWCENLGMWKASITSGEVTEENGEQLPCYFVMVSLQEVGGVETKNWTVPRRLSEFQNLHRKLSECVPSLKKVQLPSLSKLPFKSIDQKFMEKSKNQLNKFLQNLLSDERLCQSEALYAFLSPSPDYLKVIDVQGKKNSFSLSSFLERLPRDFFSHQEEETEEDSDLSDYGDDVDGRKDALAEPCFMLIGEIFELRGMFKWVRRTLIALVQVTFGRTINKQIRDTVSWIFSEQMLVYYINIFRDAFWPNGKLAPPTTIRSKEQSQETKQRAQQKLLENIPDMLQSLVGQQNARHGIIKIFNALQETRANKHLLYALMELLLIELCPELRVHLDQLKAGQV
# B5: Speckle-type POZ protein (Homo sapiens), O43791 (parent)
# chain: B1 chain
# partner: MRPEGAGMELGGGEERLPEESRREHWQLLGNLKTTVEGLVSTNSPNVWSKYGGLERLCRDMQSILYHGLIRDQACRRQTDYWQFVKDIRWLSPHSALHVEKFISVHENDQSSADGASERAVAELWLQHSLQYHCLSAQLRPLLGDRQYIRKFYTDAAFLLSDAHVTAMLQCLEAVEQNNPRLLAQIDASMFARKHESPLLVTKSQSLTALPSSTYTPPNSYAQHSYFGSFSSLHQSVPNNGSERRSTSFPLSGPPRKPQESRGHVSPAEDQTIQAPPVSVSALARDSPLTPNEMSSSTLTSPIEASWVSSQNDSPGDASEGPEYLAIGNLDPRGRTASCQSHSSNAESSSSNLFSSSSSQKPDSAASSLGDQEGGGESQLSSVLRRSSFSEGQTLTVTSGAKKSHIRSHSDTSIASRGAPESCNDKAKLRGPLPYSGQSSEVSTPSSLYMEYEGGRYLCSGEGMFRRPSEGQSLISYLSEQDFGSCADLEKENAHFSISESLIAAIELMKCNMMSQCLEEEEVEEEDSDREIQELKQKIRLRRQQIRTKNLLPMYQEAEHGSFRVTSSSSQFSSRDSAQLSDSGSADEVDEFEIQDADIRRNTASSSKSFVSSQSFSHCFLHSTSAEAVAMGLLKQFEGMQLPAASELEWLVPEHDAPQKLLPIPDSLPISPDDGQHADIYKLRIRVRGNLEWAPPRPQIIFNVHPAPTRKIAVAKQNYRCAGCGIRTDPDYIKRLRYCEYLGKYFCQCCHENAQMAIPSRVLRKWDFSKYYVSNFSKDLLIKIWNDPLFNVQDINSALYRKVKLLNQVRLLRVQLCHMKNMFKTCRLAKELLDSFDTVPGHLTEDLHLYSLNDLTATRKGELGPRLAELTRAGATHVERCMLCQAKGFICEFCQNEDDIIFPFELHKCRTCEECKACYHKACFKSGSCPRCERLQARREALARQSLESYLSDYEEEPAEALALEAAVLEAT
# B6: Speckle-type POZ protein (Homo sapiens), O43791 (parent)
# chain: B1 chain
# partner: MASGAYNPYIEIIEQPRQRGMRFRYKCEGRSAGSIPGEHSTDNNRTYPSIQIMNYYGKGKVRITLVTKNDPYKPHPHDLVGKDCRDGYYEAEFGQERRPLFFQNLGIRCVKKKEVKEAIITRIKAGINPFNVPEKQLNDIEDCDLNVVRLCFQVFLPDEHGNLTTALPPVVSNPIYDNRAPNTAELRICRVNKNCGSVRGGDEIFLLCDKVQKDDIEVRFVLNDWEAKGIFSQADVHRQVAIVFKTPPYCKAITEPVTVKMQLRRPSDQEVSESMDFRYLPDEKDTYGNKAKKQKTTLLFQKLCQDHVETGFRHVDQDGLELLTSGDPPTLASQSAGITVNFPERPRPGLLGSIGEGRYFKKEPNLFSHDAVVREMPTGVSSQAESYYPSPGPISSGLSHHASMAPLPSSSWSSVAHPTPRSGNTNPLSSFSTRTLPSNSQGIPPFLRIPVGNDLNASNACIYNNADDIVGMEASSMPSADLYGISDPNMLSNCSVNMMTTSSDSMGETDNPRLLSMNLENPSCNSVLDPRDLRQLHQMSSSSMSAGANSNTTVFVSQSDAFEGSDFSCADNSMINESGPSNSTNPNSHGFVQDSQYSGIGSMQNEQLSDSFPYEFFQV
# Variants of: B1
# Settings: with rasf7_human RASSF7, Q02833
row,effect of a mutation on the interaction,Variant
1,with no effect,F133V

# Variants of: B1
# Settings: with rasf7_human RASSF7, Q02833
# Remark: another data set of the same source
row,effect of a mutation on the interaction,Variant
1,with no effect,F133L

# Variants of: B1
# Settings: with rasf7_human RASSF7, Q02833
# Remark: another data set of the same source
row,effect of a mutation on the interaction,Variant
1,with no effect,F102C

# Variants of: B2
# Settings: with sodm_human SOD2, P04179
row,effect of a mutation on the interaction,Variant
1,with no effect,F102C

# Variants of: B2
# Settings: with sodm_human SOD2, P04179
# Remark: another data set of the same source
row,effect of a mutation on the interaction,Variant
1,with no effect,F133V

# Variants of: B2
# Settings: with sodm_human SOD2, P04179
# Remark: another data set of the same source
row,effect of a mutation on the interaction,Variant
1,with no effect,F133L

# Variants of: B2
# Settings: with sodm_human SOD2, P04179
# Remark: another data set of the same source
row,effect of a mutation on the interaction,Variant
1,with no effect,Y87C

# Variants of: B3
# Settings: with sdhb_human SDHB
row,effect of a mutation on the interaction,Variant
1,with no effect,F102C

# Variants of: B3
# Settings: with sdhb_human SDHB
# Remark: another data set of the same source
row,effect of a mutation on the interaction,Variant
1,with no effect,F133L

# Variants of: B3
# Settings: with sdhb_human SDHB
# Remark: another data set of the same source
row,effect of a mutation on the interaction,Variant
1,with no effect,F133V

# Variants of: B3
# Settings: with sdhb_human SDHB
# Remark: another data set of the same source
row,effect of a mutation on the interaction,Variant
1,with no effect,Y87C

# Variants of: B4
# Settings: with snx25_human SNX25, Q9H3E2
row,effect of a mutation on the interaction,Variant
1,with no effect,F102C

# Variants of: B4
# Settings: with snx25_human SNX25, Q9H3E2
# Remark: another data set of the same source
row,effect of a mutation on the interaction,Variant
1,with no effect,Y87C

# Variants of: B4
# Settings: with snx25_human SNX25, Q9H3E2
# Remark: another data set of the same source
row,effect of a mutation on the interaction,Variant
1,with no effect,F133L

# Variants of: B4
# Settings: with snx25_human SNX25, Q9H3E2
# Remark: another data set of the same source
row,effect of a mutation on the interaction,Variant
1,with no effect,F133V

# Variants of: B5
# Settings: with rubic_human RUBCN
row,effect of a mutation on the interaction,Variant
1,with no effect,F102C

# Variants of: B5
# Settings: with rubic_human RUBCN
# Remark: another data set of the same source
row,effect of a mutation on the interaction,Variant
1,with no effect,Y87C

# Variants of: B5
# Settings: with rubic_human RUBCN
# Remark: another data set of the same source
row,effect of a mutation on the interaction,Variant
1,with no effect,F133L

# Variants of: B5
# Settings: with rubic_human RUBCN
# Remark: another data set of the same source
row,effect of a mutation on the interaction,Variant
1,with no effect,F133V

# Variants of: B6
# Settings: with rel_human REL
row,effect of a mutation on the interaction,Variant
1,causing an interaction,F133L

# Variants of: B6
# Settings: with rel_human REL
# Remark: another data set of the same source
row,effect of a mutation on the interaction,Variant
1,increasing interaction strength,F133L

# Variants of: B6
# Settings: with rel_human REL
# Remark: another data set of the same source
row,effect of a mutation on the interaction,Variant
1,with no effect,F133V

# Variants of: B6
# Settings: with rel_human REL
# Remark: another data set of the same source
row,effect of a mutation on the interaction,Variant
1,with no effect,Y87C

# Variants of: B6
# Settings: with rel_human REL
# Remark: another data set of the same source
row,effect of a mutation on the interaction,Variant
1,with no effect,F102C
